The values that follow come from article PMC6391921.

What all share (experiment): BLI
Experiment [1] addresses H3ssF_C, H3 stabilized HA stem ferritin nanoparticle, design C (influenza A virus A/Finland/486/2004 (H3N2) | not stated) (UniProt Q9ZLI1).
In experiment [2] the target is H3ssF_H, H3 stabilized HA stem ferritin nanoparticle, design H (influenza A virus A/Finland/486/2004 (H3N2) | not stated) (UniProt Q9ZLI1).
For experiment [3], the target named is full-length H3 HA trimer (influenza A virus (H3)).

Consider CT149 Fab, for which, in experiment [1], the Kd turned out to be 21.3 nM, the off-rate (koff) was found to be 0.017 s⁻¹ and the kon came to 810000 M⁻¹ s⁻¹. In experiment [2], this substance came in with a Kd of 22.2 nM, a koff of 0.018 s⁻¹ and a kon of 820000 M⁻¹ s⁻¹. In addition, in experiment [3], the dissociation constant Kd amounted to 42.2 nM, the koff was determined as 0.0032 s⁻¹ and the kon worked out at 75000 M⁻¹ s⁻¹.
